Results taken from paper PMC11643828, “Tumor-Targeted Cell-Penetrating Peptides Reveal That Monomethyl Auristatin E Temporally Modulates the Tumor Immune Microenvironment” (Molecules, 2024).
*1 amine or outer side, *2 acyl side, *3 side chain or, on linkers, in order; H or OH if unused. Where a SMILES comes first, the peptide text is derived from it. Bridges are numbered along the chain shown (N, C = ends). Roman numbers before positions name the chains, in order. [ ]: non-standard residue; d: D form. The star is where a group is joined. X2 = O=C(CCCCCN1C(=O)CC([*:2])C1=O)NCCOCCOCCOCCOCCOCCOCCOCCOCCC(=O)[*:1]; Hexanoyl(6-succinimido-3yl) = O=C1CC([*:1])C(=O)N1CCCCCC(=O)[*:2]; Dolaproine = CO[C@@H]([C@@H]1CCCN1)[C@@H](C)C(=O)O; Dil = CC[C@H](C)[C@H](NC)[C@@H](CC(=O)O)OC; PABC = O=C(OCc1ccc(N[*:1])cc1)[*:2]; X1 = C[C@@H](N*)[C@@H](O)c1ccccc1; Cit = NC(=O)NCCC[C@H](N)C(=O)O; NMeV = CN[C@H](C(=O)O)C(C)C; AEA = NCCOCC(=O)O

Key:
tubulin = settings: cited from earlier work
Source text: In the progression of cancers, a matrix metalloproteinase (MMP) remodeling of the extracellular tumor environment is essential for invasion and metastases. The fundamental role that MMPs play in tumor spread has made them a focus for developing new cancer therapies. While inhibitors to MMPs have been developed, pharmacologically blocking MMPs has not proven effective in patients. Alternative to enzymatic inhibition, tumor MMP activity can be therapeutically co-opted for targeting drug delivery. An example of this strategy involves cloaking cell-penetrating peptide–drug c ...

[1] = Tissue drug measurement (MMAE biodistribution) after IV cRGD-ACPP-MMAE; type: in vivo; settings: mice with HCT116 xenografts, 10 nmoles IV
Experimental: To determine tissue specificity and the kinetics of ACPP targeting in human and murine tumor model systems, we used complementary approaches, measuring drug concentrations in harvested tissues and non-invasive fluorescence whole-animal imaging. First, the pharmacokinetics of cRGD-ACPP-MMAE drug accumulation were measured in tumor and normal tissues from mice with human HCT116 xenografts. Tumor-bearing mice were intravenously (IV) injected with cRGD-ACPP-MMAE (Figure 3A). Blood, tumor, and normal tissues (heart, kidney, liver, and muscle) were collected 2, 6, and 24 h after IV injection and assayed for MMAE by LC–MS/MS (Figure 3C). […] To determine the spatial specificity of ACPP drug delivery, normal muscle tissue adjacent to the tumor xenograft was harvested.
Mice with established subcutaneous HCT116 tumors were intravenously injected through the tail vein with 10 nmoles of cRGD-ACPP-MMAE. Tumors, blood, and normal tissues were harvested at indicated time points and homogenized in 10 volumes of PBS with a point sonicator (amplitude range 5–15%). Homogenates were centrifuged ([…], 10 min) with supernatants collected and diluted 2-fold by the addition of 2% acetic acid in acetonitrile, followed by centrifugation (14× g, 10 min). MMAE concentration was measured by using LC–MS/MS with a Luna-2 C18 column (Phenomenex, Torrance, CA, USA) and Agilent Trap XCT mass spectrophotometer (Agilent), with extracted ion currents at 686.4 and 506.4 integrated and combined to improve sensitivity. Ion currents were fitted to a standard curve to determine tissue drug concentrations.

[2] = Mouse body weights in the therapy studies (safety and tolerability); type: in vivo, mice; settings: LL2 and B16 therapy studies, total 40 nmoles IV, weighed weekly
Experimental: To assess the safety and tolerability of systemically administered ACPP-MMAE conjugate, mice weights were measured weekly in the two therapy studies above.
(A) Mice bearing LL2 tumors IV injected with vehicle (untreated) or cRGD-ACPP-MMAE (20 nmoles on days 4 and 6). Individual tumor volumes plotted, left panel. Average tumors volumes on day 18 plotted as mean ± SEM, right panel (n = 10 for untreated, n = 6 for cRGD-ACPP-MMAE). Statistical significance calculated using two-tailed t testing. (B) Mice bearing B16 tumors IV injected with vehicle (untreated) or cRGD-ACPP-MMAE (20 nmoles on days 3 and 5). Individual tumor volumes plotted, left panel. Average tumors volumes on day 19 plotted as mean ± SEM, right panel (n = 10 for untreated, n = 6 for cRGD-ACPP-MMAE). Statistical significance calculated using two-tailed t testing. (C) Mouse body weights of mice from experiments in (A,B), plotted as mean fractional body weight ± SEM.
LL2 and B16 tumor cells were injected subcutaneously into the hindlimbs of 6-week-old female C57BL/6 albino mice in 100 µL of 1:1 Growth Factor Reduced Matrigel (BD) and PBS solution. […] Tumor volumes were measured and calculated using the formula as ½ × Length × Width^2. Body weights were measured weekly to assess general animal health.

Row | Compound | potency for mitotic arrest and cell death (tubulin) | tissue with highest MMAE level at 2 h ([1]; 2 h, LC-MS/MS) | tumor MMAE concentration versus peri-tumoral muscle by 6 h ([1]; 6 h, LC-MS/MS) | tumor MMAE versus normal tissues at 24 h post-injection ([1]; 24 h, LC-MS/MS, one-way ANOVA with Tukey) | MMAE concentration in normal tissues after 6 h post-drug delivery ([1]; LC-MS/MS) | tumor MMAE concentration over 24 h post-injection ([1]; LC-MS/MS) | time of peak MMAE concentration in all normal tissues (heart, kidney, liver, muscle) ([1]; tissues collected 2, 6, 24 h, MMAE by LC-MS/MS) | mouse body weights, control versus treated [2]
1 | CC[C@H](C)[C@@H]([C@@H](CC(=O)N1CCC[C@H]1[C@H](OC)[C@@H](C)C(=O)N[C@H](C)[C@@H](O)c1ccccc1)OC)N(C)C(=O)[C@@H](NC(=O)[C@@H](NC)C(C)C)C(C)C [MMAE, Monomethyl auristatin E] (H-[NMeV]V[Dil][Dolaproine]-X1) | single nanomolar range | – | – | – | – | – | – | –
2 | CC[C@H](C)[C@@H]([C@@H](CC(=O)N1CCC[C@H]1[C@H](OC)[C@@H](C)C(=O)N[C@H](C)[C@@H](O)c1ccccc1)OC)N(C)C(=O)[C@@H](NC(=O)[C@H](C(C)C)N(C)C(=O)OCc1ccc(NC(=O)[C@H](CCCNC(N)=O)NC(=O)[C@@H](NC(=O)CCCCCN2C(=O)CC(SC[C@@H](NC(=O)[C@@H](CCCNC(=N)N)NC(=O)[C@@H](CCCNC(=N)N)NC(=O)[C@@H](CCCNC(=N)N)NC(=O)[C@@H](CCCNC(=N)N)NC(=O)[C@@H](CCCNC(=N)N)NC(=O)[C@@H](CCCNC(=N)N)NC(=O)[C@@H](CCCNC(=N)N)NC(=O)[C@@H](CCCNC(=N)N)NC(=O)[C@@H](CCCNC(=N)N)NC(=O)CNC(=O)[C@H](C)NC(=O)[C@H](CSC)NC(=O)CNC(=O)[C@H](CC(C)C)NC(=O)[C@@H]3CCCN3C(=O)COCCNC(=O)[C@@H](CCC(=O)O)NC(=O)[C@@H](CCC(=O)O)NC(=O)[C@@H](CCC(=O)O)NC(=O)[C@@H](CCC(=O)O)NC(=O)[C@@H](CCC(=O)O)NC(=O)[C@@H](CCC(=O)O)NC(=O)[C@@H](CCC(=O)O)NC(=O)[C@@H](CCC(=O)O)NC(=O)[C@@H](CCC(=O)O)NC(=O)CCOCCOCCOCCOCCOCCOCCOCCOCCNC(=O)CCCCCN3C(=O)CC(SC[C@@H]4NC(=O)[C@@H](Cc5ccccc5)NC(=O)[C@H](CC(=O)O)NC(=O)CNC(=O)[C@H](CCCNC(=N)N)NC4=O)C3=O)C(N)=O)C2=O)C(C)C)cc1)C(C)C (some centres unmarked) [cRGD-ACPP-MMAE, cyclo(RGD)fc-MC-HN-peg8-e9-oPLGC(Me)AG-r9-c-(MC-VC-PABC-MMAE)-CONH2] (I: [dE][dE][dE][dE][dE][dE][dE][dE][dE][AEA]PLGC(Me)AG[dR][dR][dR][dR][dR][dR][dR][dR][dR][dC]-NH2 / II: V[Cit][PABC][NMeV]V[Dil][Dolaproine]-X1 / III: cyclo(RGD[dF]C); linker I:26-II:N via Hexanoyl(6-succinimido-3yl); linker I:N-III:5 via X2) | – | the kidneys had the highest levels of MMAE | higher than the surrounding normal muscle tissue | significantly higher than all normal tissues assayed | rapid decrease | remained relatively constant | 2 h | no significant difference
